Laboratory results from patent publication US20230220042A1 (SHANGHAI JIAO TONG UNIVERSITY SCHOOL OF MEDICINE, published 2023).

T1: Biotin-FcγRIIB (human FcγRIIB, Sino Biological) (human, UniProt P31994 43-217, limits assumed, biotin-labeled)
T1 construct: Used at 1 µg/ml with Streptavidin-APC for flow cytometry and sorting; also called CD32b
T1 sequence (looked up): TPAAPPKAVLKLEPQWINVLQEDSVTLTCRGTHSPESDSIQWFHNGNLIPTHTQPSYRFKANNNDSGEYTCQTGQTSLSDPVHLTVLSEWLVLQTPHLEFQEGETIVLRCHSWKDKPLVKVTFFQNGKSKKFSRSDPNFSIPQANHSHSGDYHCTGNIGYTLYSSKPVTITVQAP

B1: human IgG2 anti-mouse CD40 surface displayed antibody, P271G/T299M (antibody, name in EU numbering)
light chain (with the P2A rest): DTVLTQSPALAVSPGERVTISCRASDSVSTLMHWYQQKPGQQPKLLIYLASHLESGVPARFSGSGSGTDFTLTIDPVEADDTATYYCQQSWNDPWTFGGGTKLELKRTVAAPSVFIFPPSDEQLKSGTASVVCLLNNFYPREAKVQWKVDNALQSGNSQESVTEQDSKDSTYSLSSTLTLSKADYEKHKVYACEVTHQGLSSPVTKSFNRGECGSGATNFSLLKQAGDVEENPG
heavy chain: EVQLVESDGGLVQPGRSLKLPCAASGFTFSDYYMAWVRQAPTKGLEWVASISYDGSSTYYRDSVKGRFTISRDNAKSTLYLQMDSLRSEDTATYYCGRHSSYFDYWGQGVMVTVSSASTKGPSVFPLAPCSRSTSESTAALGCLVKDYFPEPVTVSWNSGALTSGVHTFPAVLQSSGLYSLSSVVTVPSSNFGTQTYTCNVDHKPSNTKVDKTVERKCCVECPPCPAPPVAGPSVFLFPPKPKDTLMISRTPEVTCVVVDVSHEDGEVQFNWYVDGVEVHNAKTKPREEQFNSMFRVVSVLTVVHQDWLNGKEYKCKVSNKGLPAPIEKTISKTKGQPREPQVYTLPPSREEMTKNQVSLTCLVKGFYPSDIAVEWESNGQPENNYKTTPPMLDSDGSFFLYSKLTVDKSRWQQGNVFSCSVMHEALHNHYTQKSLSLSPGKLEPPPSTVSNMATVAVLVVLGAAIVTGAVVAFVMKMRRRNTGGKGGDYALAPGSQTSDLSLPDCKVMVHDPHSLA
notes: m1 with these Fc mutations (Eu numbering); copies: 2 + 2
B2: human IgG2 anti-mouse CD40 surface displayed antibody, P271G/T299S (antibody, name in EU numbering)
light chain (with the P2A rest): DTVLTQSPALAVSPGERVTISCRASDSVSTLMHWYQQKPGQQPKLLIYLASHLESGVPARFSGSGSGTDFTLTIDPVEADDTATYYCQQSWNDPWTFGGGTKLELKRTVAAPSVFIFPPSDEQLKSGTASVVCLLNNFYPREAKVQWKVDNALQSGNSQESVTEQDSKDSTYSLSSTLTLSKADYEKHKVYACEVTHQGLSSPVTKSFNRGECGSGATNFSLLKQAGDVEENPG
heavy chain: EVQLVESDGGLVQPGRSLKLPCAASGFTFSDYYMAWVRQAPTKGLEWVASISYDGSSTYYRDSVKGRFTISRDNAKSTLYLQMDSLRSEDTATYYCGRHSSYFDYWGQGVMVTVSSASTKGPSVFPLAPCSRSTSESTAALGCLVKDYFPEPVTVSWNSGALTSGVHTFPAVLQSSGLYSLSSVVTVPSSNFGTQTYTCNVDHKPSNTKVDKTVERKCCVECPPCPAPPVAGPSVFLFPPKPKDTLMISRTPEVTCVVVDVSHEDGEVQFNWYVDGVEVHNAKTKPREEQFNSSFRVVSVLTVVHQDWLNGKEYKCKVSNKGLPAPIEKTISKTKGQPREPQVYTLPPSREEMTKNQVSLTCLVKGFYPSDIAVEWESNGQPENNYKTTPPMLDSDGSFFLYSKLTVDKSRWQQGNVFSCSVMHEALHNHYTQKSLSLSPGKLEPPPSTVSNMATVAVLVVLGAAIVTGAVVAFVMKMRRRNTGGKGGDYALAPGSQTSDLSLPDCKVMVHDPHSLA
notes: as for B1
B3: human IgG2 anti-mouse CD40 surface displayed antibody, P271Q (antibody, name in EU numbering)
light chain (with the P2A rest): DTVLTQSPALAVSPGERVTISCRASDSVSTLMHWYQQKPGQQPKLLIYLASHLESGVPARFSGSGSGTDFTLTIDPVEADDTATYYCQQSWNDPWTFGGGTKLELKRTVAAPSVFIFPPSDEQLKSGTASVVCLLNNFYPREAKVQWKVDNALQSGNSQESVTEQDSKDSTYSLSSTLTLSKADYEKHKVYACEVTHQGLSSPVTKSFNRGECGSGATNFSLLKQAGDVEENPG
heavy chain: EVQLVESDGGLVQPGRSLKLPCAASGFTFSDYYMAWVRQAPTKGLEWVASISYDGSSTYYRDSVKGRFTISRDNAKSTLYLQMDSLRSEDTATYYCGRHSSYFDYWGQGVMVTVSSASTKGPSVFPLAPCSRSTSESTAALGCLVKDYFPEPVTVSWNSGALTSGVHTFPAVLQSSGLYSLSSVVTVPSSNFGTQTYTCNVDHKPSNTKVDKTVERKCCVECPPCPAPPVAGPSVFLFPPKPKDTLMISRTPEVTCVVVDVSHEDQEVQFNWYVDGVEVHNAKTKPREEQFNSTFRVVSVLTVVHQDWLNGKEYKCKVSNKGLPAPIEKTISKTKGQPREPQVYTLPPSREEMTKNQVSLTCLVKGFYPSDIAVEWESNGQPENNYKTTPPMLDSDGSFFLYSKLTVDKSRWQQGNVFSCSVMHEALHNHYTQKSLSLSPGKLEPPPSTVSNMATVAVLVVLGAAIVTGAVVAFVMKMRRRNTGGKGGDYALAPGSQTSDLSLPDCKVMVHDPHSLA
notes: m1 with this Fc mutation (Eu numbering); copies: 2 + 2
B4: human IgG2 anti-mouse CD40 surface displayed antibody, S267E (antibody, name in EU numbering)
light chain (with the P2A rest): DTVLTQSPALAVSPGERVTISCRASDSVSTLMHWYQQKPGQQPKLLIYLASHLESGVPARFSGSGSGTDFTLTIDPVEADDTATYYCQQSWNDPWTFGGGTKLELKRTVAAPSVFIFPPSDEQLKSGTASVVCLLNNFYPREAKVQWKVDNALQSGNSQESVTEQDSKDSTYSLSSTLTLSKADYEKHKVYACEVTHQGLSSPVTKSFNRGECGSGATNFSLLKQAGDVEENPG
heavy chain: EVQLVESDGGLVQPGRSLKLPCAASGFTFSDYYMAWVRQAPTKGLEWVASISYDGSSTYYRDSVKGRFTISRDNAKSTLYLQMDSLRSEDTATYYCGRHSSYFDYWGQGVMVTVSSASTKGPSVFPLAPCSRSTSESTAALGCLVKDYFPEPVTVSWNSGALTSGVHTFPAVLQSSGLYSLSSVVTVPSSNFGTQTYTCNVDHKPSNTKVDKTVERKCCVECPPCPAPPVAGPSVFLFPPKPKDTLMISRTPEVTCVVVDVEHEDPEVQFNWYVDGVEVHNAKTKPREEQFNSTFRVVSVLTVVHQDWLNGKEYKCKVSNKGLPAPIEKTISKTKGQPREPQVYTLPPSREEMTKNQVSLTCLVKGFYPSDIAVEWESNGQPENNYKTTPPMLDSDGSFFLYSKLTVDKSRWQQGNVFSCSVMHEALHNHYTQKSLSLSPGKLEPPPSTVSNMATVAVLVVLGAAIVTGAVVAFVMKMRRRNTGGKGGDYALAPGSQTSDLSLPDCKVMVHDPHSLA
notes: as for B3
B5: human IgG2 anti-mouse CD40 surface displayed antibody, S267R (antibody, name in EU numbering)
light chain (with the P2A rest): DTVLTQSPALAVSPGERVTISCRASDSVSTLMHWYQQKPGQQPKLLIYLASHLESGVPARFSGSGSGTDFTLTIDPVEADDTATYYCQQSWNDPWTFGGGTKLELKRTVAAPSVFIFPPSDEQLKSGTASVVCLLNNFYPREAKVQWKVDNALQSGNSQESVTEQDSKDSTYSLSSTLTLSKADYEKHKVYACEVTHQGLSSPVTKSFNRGECGSGATNFSLLKQAGDVEENPG
heavy chain: EVQLVESDGGLVQPGRSLKLPCAASGFTFSDYYMAWVRQAPTKGLEWVASISYDGSSTYYRDSVKGRFTISRDNAKSTLYLQMDSLRSEDTATYYCGRHSSYFDYWGQGVMVTVSSASTKGPSVFPLAPCSRSTSESTAALGCLVKDYFPEPVTVSWNSGALTSGVHTFPAVLQSSGLYSLSSVVTVPSSNFGTQTYTCNVDHKPSNTKVDKTVERKCCVECPPCPAPPVAGPSVFLFPPKPKDTLMISRTPEVTCVVVDVRHEDPEVQFNWYVDGVEVHNAKTKPREEQFNSTFRVVSVLTVVHQDWLNGKEYKCKVSNKGLPAPIEKTISKTKGQPREPQVYTLPPSREEMTKNQVSLTCLVKGFYPSDIAVEWESNGQPENNYKTTPPMLDSDGSFFLYSKLTVDKSRWQQGNVFSCSVMHEALHNHYTQKSLSLSPGKLEPPPSTVSNMATVAVLVVLGAAIVTGAVVAFVMKMRRRNTGGKGGDYALAPGSQTSDLSLPDCKVMVHDPHSLA
notes: as for B3
B6: human IgG2 anti-mouse CD40 surface displayed antibody, P271G/T299W (antibody, name in EU numbering)
light chain (with the P2A rest): DTVLTQSPALAVSPGERVTISCRASDSVSTLMHWYQQKPGQQPKLLIYLASHLESGVPARFSGSGSGTDFTLTIDPVEADDTATYYCQQSWNDPWTFGGGTKLELKRTVAAPSVFIFPPSDEQLKSGTASVVCLLNNFYPREAKVQWKVDNALQSGNSQESVTEQDSKDSTYSLSSTLTLSKADYEKHKVYACEVTHQGLSSPVTKSFNRGECGSGATNFSLLKQAGDVEENPG
heavy chain: EVQLVESDGGLVQPGRSLKLPCAASGFTFSDYYMAWVRQAPTKGLEWVASISYDGSSTYYRDSVKGRFTISRDNAKSTLYLQMDSLRSEDTATYYCGRHSSYFDYWGQGVMVTVSSASTKGPSVFPLAPCSRSTSESTAALGCLVKDYFPEPVTVSWNSGALTSGVHTFPAVLQSSGLYSLSSVVTVPSSNFGTQTYTCNVDHKPSNTKVDKTVERKCCVECPPCPAPPVAGPSVFLFPPKPKDTLMISRTPEVTCVVVDVSHEDGEVQFNWYVDGVEVHNAKTKPREEQFNSWFRVVSVLTVVHQDWLNGKEYKCKVSNKGLPAPIEKTISKTKGQPREPQVYTLPPSREEMTKNQVSLTCLVKGFYPSDIAVEWESNGQPENNYKTTPPMLDSDGSFFLYSKLTVDKSRWQQGNVFSCSVMHEALHNHYTQKSLSLSPGKLEPPPSTVSNMATVAVLVVLGAAIVTGAVVAFVMKMRRRNTGGKGGDYALAPGSQTSDLSLPDCKVMVHDPHSLA
notes: as for B1
B7: human IgG2 anti-mouse CD40 surface displayed antibody, S267E/S298R (antibody, name in EU numbering)
light chain (with the P2A rest): DTVLTQSPALAVSPGERVTISCRASDSVSTLMHWYQQKPGQQPKLLIYLASHLESGVPARFSGSGSGTDFTLTIDPVEADDTATYYCQQSWNDPWTFGGGTKLELKRTVAAPSVFIFPPSDEQLKSGTASVVCLLNNFYPREAKVQWKVDNALQSGNSQESVTEQDSKDSTYSLSSTLTLSKADYEKHKVYACEVTHQGLSSPVTKSFNRGECGSGATNFSLLKQAGDVEENPG
heavy chain: EVQLVESDGGLVQPGRSLKLPCAASGFTFSDYYMAWVRQAPTKGLEWVASISYDGSSTYYRDSVKGRFTISRDNAKSTLYLQMDSLRSEDTATYYCGRHSSYFDYWGQGVMVTVSSASTKGPSVFPLAPCSRSTSESTAALGCLVKDYFPEPVTVSWNSGALTSGVHTFPAVLQSSGLYSLSSVVTVPSSNFGTQTYTCNVDHKPSNTKVDKTVERKCCVECPPCPAPPVAGPSVFLFPPKPKDTLMISRTPEVTCVVVDVEHEDPEVQFNWYVDGVEVHNAKTKPREEQFNRTFRVVSVLTVVHQDWLNGKEYKCKVSNKGLPAPIEKTISKTKGQPREPQVYTLPPSREEMTKNQVSLTCLVKGFYPSDIAVEWESNGQPENNYKTTPPMLDSDGSFFLYSKLTVDKSRWQQGNVFSCSVMHEALHNHYTQKSLSLSPGKLEPPPSTVSNMATVAVLVVLGAAIVTGAVVAFVMKMRRRNTGGKGGDYALAPGSQTSDLSLPDCKVMVHDPHSLA
notes: as for B1

Each binder was assayed against T1, Biotin-FcγRIIB (human FcγRIIB, Sino …) (assay: NGS after FACS sort of 3T3-displayed LibraryMix for biotin-FcγRIIB binding).

Point of comparison: B1, “Enrichment factor (percentage after sorting/percentage before sorting)” value 4.74. Against it:
- B2 — higher, 12
- B3 — lower, 1.65
- B4 — higher, 217
- B5 — lower, 1.52
- B6 — higher, 9.23
- B7 — higher, 32.8

Point of comparison: B7, “Increased factor (enrichment factor/wild-type enrichment factor)” value 43.8. Against it:
- B1 — lower, 6.33
- B2 — lower, 16
- B3 — lower, 2.21
- B4 — higher, 290
- B5 — lower, 2.03
- B6 — lower, 12.3
